Measured values reported in patent publication US20140120095A1 (Boehringer Ingelheim, published 2014).

T1: PIGF (UniProt P49763-2 21-149, limits assumed)
T1 construct: also called placenta growth factor
T1 sequence (looked up): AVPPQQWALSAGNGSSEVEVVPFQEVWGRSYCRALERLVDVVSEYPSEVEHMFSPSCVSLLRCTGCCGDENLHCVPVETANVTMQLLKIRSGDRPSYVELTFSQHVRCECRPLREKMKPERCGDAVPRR

T2: VEGFD (UniProt O43915 93-201, limits assumed)
T2 sequence (looked up): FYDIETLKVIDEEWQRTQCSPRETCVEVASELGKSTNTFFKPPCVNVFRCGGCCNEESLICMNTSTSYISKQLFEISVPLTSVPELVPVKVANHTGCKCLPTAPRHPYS

T3: VEGFB (UniProt P49765-2 22-188, limits assumed)
T3 sequence (looked up): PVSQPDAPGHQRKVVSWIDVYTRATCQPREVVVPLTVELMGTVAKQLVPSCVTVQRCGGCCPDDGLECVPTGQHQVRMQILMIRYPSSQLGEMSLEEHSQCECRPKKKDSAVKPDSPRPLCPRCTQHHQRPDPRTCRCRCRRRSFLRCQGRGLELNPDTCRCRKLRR

T4: VEGFC (UniProt P49767 103-227, limits assumed)
T4 sequence (looked up): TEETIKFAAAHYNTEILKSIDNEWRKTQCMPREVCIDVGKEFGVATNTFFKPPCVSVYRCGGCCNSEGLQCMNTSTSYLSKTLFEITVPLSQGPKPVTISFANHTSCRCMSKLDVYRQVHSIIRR


Legend:
[1] = molecular target: T1, PIGF; assay: solid phase binding ELISA on coated PIGF (Example 12.8)
Protocol: (§1) Binding to VEGFB, VEGFC, VEGFD and PIGF is assessed via a solid phase binding ELISA. […] Wells are blocked with a casein solution (1% in PBS). […] As positive controls serial dilutions of the appropriate receptors are taken along and detected with horseradish peroxidase (HRP)-conjugated goat anti-human IgG, Fc specific antibody (Jackson Immuno Research Laboratories Inc., West Grove, Pa., USA) and a subsequent enzymatic reaction in the presence of the substrate TMB (3,3′,5,5′-tetramentylbenzidine) (Pierce, Rockford, Ill., USA).

[2] = molecular target: T2, VEGFD; assay: solid phase binding ELISA on coated VEGF D (Example 12.8)
Protocol: as §1

[3] = molecular target: T3, VEGFB; assay: binding ELISA on coated VEGFB (Example 12.8), OD 450 nm
Protocol: as §1

[4] = molecular target: T4, VEGFC; assay: binding ELISA on coated VEGFC (Example 12.8), OD 450 nm
Protocol: as §1

binding result [1]	binding result [2]	binding result [3]	binding result [4]	Binder
no binding (tested: about 5e-7 M)	no binding (tested: about 5e-7 M)	no binding (tested: 5e-7 M)	no binding (tested: 5e-7 M)	VEGFBII021 (VHH, bivalent (heterodimeric) VHH; also called VEGFBII23B04-40GS-5B05) EVQLVESGGGLVQTGDSLRLSCEVSGRTFSSYSMGWFRQAQGKEREFVVAISKGGYKYDSVSLEGRFTISKDNAKNTVYLQINSLKPEDTAVYYCASSRAYGSSRLRLADTYEYWGQGTQVTVSSGGGGSGGGGSGGGGSGGGGSGGGGSGGGGSGGGGSGGGGSEVQLVESGGGLVQPGGSLRLSCVASGIRFMSMAWYRQAPGKHRELVARISSGGTTAYVDSVKGRFTISRDNSKNTVYLQMNSLKAEDTAVYYCNTFSSRPNPWGAGTQVTVSS
no binding (tested: about 5e-7 M)	no binding (tested: about 5e-7 M)	no binding (tested: 5e-7 M)	no binding (tested: 5e-7 M)	VEGFBII022 (VHH, bivalent (heterodimeric) VHH; also called VEGFBII23B04-9GS-5B05) EVQLVESGGGLVQTGDSLRLSCEVSGRTFSSYSMGWFRQAQGKEREFVVAISKGGYKYDSVSLEGRFTISKDNAKNTVYLQINSLKPEDTAVYYCASSRAYGSSRLRLADTYEYWGQGTQVTVSSGGGGSGGGSEVQLVESGGGLVQPGGSLRLSCVASGIRFMSMAWYRQAPGKHRELVARISSGGTTAYVDSVKGRFTISRDNSKNTVYLQMNSLKAEDTAVYYCNTFSSRPNPWGAGTQVTVSS
no binding (tested: about 5e-7 M)	no binding (tested: about 5e-7 M)	no binding (tested: 5e-7 M)	no binding (tested: 5e-7 M)	VEGFBII024 (VHH, bivalent (heterodimeric) VHH; also called VEGFBII23B04-40GS-86H09) EVQLVESGGGLVQTGDSLRLSCEVSGRTFSSYSMGWFRQAQGKEREFVVAISKGGYKYDSVSLEGRFTISKDNAKNTVYLQINSLKPEDTAVYYCASSRAYGSSRLRLADTYEYWGQGTQVTVSSGGGGSGGGGSGGGGSGGGGSGGGGSGGGGSGGGGSGGGGSEVQLVESGGGLVQAGGSLRLSCTASGSAFKSYRMGWFRRTPGKEDEFVASISWTYGSTFYADSVKGRFTMSRDKAKNAGYLQMNSLKPEDTALYYCAAGAQSDRYNIRSYDYWGQGTQVTVSS
no binding (tested: about 5e-7 M)	no binding (tested: about 5e-7 M)	no binding (tested: 5e-7 M)	no binding (tested: 5e-7 M)	VEGFBII025 (VHH, bivalent (heterodimeric) VHH; also called VEGFBII10E07-40GS-23B04) EVQLVESGGGLVQAGGSLRLSCAASGRTFSNYAMGWFRQAPGKERVLVADISSSGINTYVADAVKGRFTISRDNAKNTVYLQMNSLKPEDTAVYYCAASAWWYSQMARDNYRYWGQGTQVTVSSGGGGSGGGGSGGGGSGGGGSGGGGSGGGGSGGGGSGGGGSEVQLVESGGGLVQTGDSLRLSCEVSGRTFSSYSMGWFRQAQGKEREFVVAISKGGYKYDSVSLEGRFTISKDNAKNTVYLQINSLKPEDTAVYYCASSRAYGSSRLRLADTYEYWGQGTQVTVSS
no binding (tested: about 5e-7 M)	no binding (tested: about 5e-7 M)	no binding (tested: 5e-7 M)	no binding (tested: 5e-7 M)	VEGFBII023 (VHH, bivalent (heterodimeric) VHH; also called VEGFBII23B04-40GS-10E07) EVQLVESGGGLVQTGDSLRLSCEVSGRTFSSYSMGWFRQAQGKEREFVVAISKGGYKYDSVSLEGRFTISKDNAKNTVYLQINSLKPEDTAVYYCASSRAYGSSRLRLADTYEYWGQGTQVTVSSGGGGSGGGGSGGGGSGGGGSGGGGSGGGGSGGGGSGGGGSEVQLVESGGGLVQAGGSLRLSCAASGRTFSNYAMGWFRQAPGKERVLVADISSSGINTYVADAVKGRFTISRDNAKNTVYLQMNSLKPEDTAVYYCAASAWWYSQMARDNYRYWGQGTQVTVSS
